Test results taken from US20140243502A1.

What was measured:
[1] = target: GP IIb/IIIa in its activated, fibrinogen-bound state on activated mouse platelets (mouse) (UniProt Q9QUM0); assay: ex vivo 11.7 T MRI of wire-injured mouse femoral artery after bead perfusion
[2] = target: GP IIb/IIIa in its activated, fibrinogen-bound state on activated mouse platelets (mouse) (UniProt Q9QUM0); assay: histology of wire-injured mouse femoral artery after bead perfusion, 20-25 sections per animal

Sequence of GP IIb/IIIa in its activated, fibrinogen-bound state on activated mouse platelets (mouse) (Q9QUM0 32-1033, chain 1 of 2): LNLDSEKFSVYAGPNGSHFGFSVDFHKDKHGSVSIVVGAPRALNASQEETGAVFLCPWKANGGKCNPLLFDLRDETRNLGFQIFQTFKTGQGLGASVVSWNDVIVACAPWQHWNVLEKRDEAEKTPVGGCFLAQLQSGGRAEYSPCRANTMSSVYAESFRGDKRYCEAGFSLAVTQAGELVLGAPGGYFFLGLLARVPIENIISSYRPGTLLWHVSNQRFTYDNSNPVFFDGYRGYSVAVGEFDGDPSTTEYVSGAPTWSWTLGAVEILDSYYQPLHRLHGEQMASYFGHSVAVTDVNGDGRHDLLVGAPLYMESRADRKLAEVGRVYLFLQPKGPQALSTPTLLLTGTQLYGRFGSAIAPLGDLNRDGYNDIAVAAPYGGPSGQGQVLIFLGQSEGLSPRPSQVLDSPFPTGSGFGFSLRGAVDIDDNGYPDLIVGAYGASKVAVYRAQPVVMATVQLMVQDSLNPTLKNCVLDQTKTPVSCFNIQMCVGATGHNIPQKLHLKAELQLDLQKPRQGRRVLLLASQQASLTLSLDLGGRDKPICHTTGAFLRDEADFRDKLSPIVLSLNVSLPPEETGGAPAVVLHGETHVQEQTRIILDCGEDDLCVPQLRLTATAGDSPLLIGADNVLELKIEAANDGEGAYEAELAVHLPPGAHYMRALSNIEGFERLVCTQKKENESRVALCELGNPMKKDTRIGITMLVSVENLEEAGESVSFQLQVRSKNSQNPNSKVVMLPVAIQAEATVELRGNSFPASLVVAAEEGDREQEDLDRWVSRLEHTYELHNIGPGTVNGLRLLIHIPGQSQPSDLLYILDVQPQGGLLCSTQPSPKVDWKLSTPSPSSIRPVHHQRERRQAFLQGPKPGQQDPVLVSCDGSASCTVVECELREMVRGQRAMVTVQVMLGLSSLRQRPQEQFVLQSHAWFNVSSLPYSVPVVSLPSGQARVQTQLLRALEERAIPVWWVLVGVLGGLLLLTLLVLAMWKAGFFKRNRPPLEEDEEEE
Sequence of GP IIb/IIIa in its activated, fibrinogen-bound state on activated mouse platelets (mouse) (O54890 26-787, chain 2 of 2, further chain): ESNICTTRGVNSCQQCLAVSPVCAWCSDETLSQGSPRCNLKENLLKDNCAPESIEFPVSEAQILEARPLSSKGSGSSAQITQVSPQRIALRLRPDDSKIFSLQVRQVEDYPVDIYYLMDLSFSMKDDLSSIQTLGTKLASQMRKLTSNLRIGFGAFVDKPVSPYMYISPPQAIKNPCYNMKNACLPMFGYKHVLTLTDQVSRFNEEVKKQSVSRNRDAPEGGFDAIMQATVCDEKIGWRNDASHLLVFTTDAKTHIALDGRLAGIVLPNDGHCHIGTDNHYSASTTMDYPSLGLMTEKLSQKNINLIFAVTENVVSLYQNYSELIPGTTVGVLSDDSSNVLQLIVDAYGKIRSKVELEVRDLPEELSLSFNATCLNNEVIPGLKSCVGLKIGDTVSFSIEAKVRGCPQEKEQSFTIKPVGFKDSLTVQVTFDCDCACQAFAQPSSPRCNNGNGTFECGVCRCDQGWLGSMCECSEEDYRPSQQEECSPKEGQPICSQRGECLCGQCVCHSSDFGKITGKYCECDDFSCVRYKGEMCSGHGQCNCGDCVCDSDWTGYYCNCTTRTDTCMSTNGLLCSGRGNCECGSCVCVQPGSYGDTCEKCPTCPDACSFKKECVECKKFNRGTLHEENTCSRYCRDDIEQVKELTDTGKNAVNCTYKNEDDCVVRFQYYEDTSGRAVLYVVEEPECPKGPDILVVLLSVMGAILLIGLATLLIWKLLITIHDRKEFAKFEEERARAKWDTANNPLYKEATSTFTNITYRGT

Q: How did the luminal areas of low signal (MPIO-induced MRI signal void) [1] turn out when “Control-MPIO (irrelevant single-chain antibody conjugated to 1 µm iron oxide microparticles) (scFv)” was run?
A: 6.2

Q: What about the MPIOs bound per histology section (beads per section) [2] of the same substance?
A: 0.5
